# In paper doi:10.1101/2020.12.29.424758 (bioRxiv, 2020):
# B1: Fab2 (Fab, V domains shown)
# VH: EVQLVESGGGLVQPGGSLRLSCAASGFTIYSSSIHWVRQAPGKGLEWVASIYSSSGSTYYADSVKGRFTISADTSKNTAYLQMNSLRAEDTAVYYCARQSYSGLSPRRHWSYGAMDYWGQGTLVTVSS
# VL: DIQMTQSPSSLSASVGDRVTITCRASQSVSSAVAWYQQKPGKAPKLLIYSASSLYSGVPSRFSGSRSGTDFTLTISSLQPEDFATYYCQQIWSWPLITFGQGTKVEIK
# Target: YiiP from S. oneidensis (wild-type) (S. oneidensis, UniProt Q8E919)
# Assay: SEC
# Chain of YiiP from S. oneidensis (wild-type) (Q8E919 whole entry): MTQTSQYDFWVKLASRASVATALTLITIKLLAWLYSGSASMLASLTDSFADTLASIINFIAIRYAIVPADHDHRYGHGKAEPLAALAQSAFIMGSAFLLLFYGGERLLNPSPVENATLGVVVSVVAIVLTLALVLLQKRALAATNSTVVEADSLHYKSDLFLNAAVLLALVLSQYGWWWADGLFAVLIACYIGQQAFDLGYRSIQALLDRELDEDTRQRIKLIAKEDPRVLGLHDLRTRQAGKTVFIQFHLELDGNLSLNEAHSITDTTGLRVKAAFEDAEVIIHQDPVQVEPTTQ
binder,measurement,value
B1,binding result,binds
